B1: Homeobox protein cut-like 1, residues 548 to 629; numbered along this chain, P39880 (parent)
chain: GEEMDTAEIARQVKEQLIKHNIGQRIFGHYVLGLSQGSVSEILARPKPWNKLTVRGKEPFHKMKQFLSDEQNILALRSIQGR

Variants of: B1
Test: abundance fitness (aPCA) (normalised: wild type 0, dead -1); higher = more abundant; growth selection in yeast, the domain comes from the species named
Details: Homo sapiens

Abundance fitness of substitutions, site by site:
I42: N -0.633 | P -0.819 | Q -0.564 | R -1 | T -0.375 | V -0.104 | W -0.513 | Y -0.351
L43: A -0.772 | C -0.843 | D -0.68 | E -0.89 | F -0.146 | G -0.929 | H -1.04 | I -0.534 | K -1.03 | M -0.235 | N -1 | P -0.926 | Q -0.807 | R -1 | S -0.865 | T -0.922 | V -0.769 | W -0.743 | Y -0.699
A44: C -0.134 | D 0.056 | E 0.08 | F -0.082 | G -0.038 | I -0.159 | K -0.094 | L -0.027 | M 0.047 | N 0.073 | P -0.709 | Q 0.053 | R -0.106 | S 0.034 | T 0.057 | V -0.137 | W -0.176 | Y -0.099
R45: A 0.03 | C -0.001 | D -0.033 | E -0.009 | F 0.008 | G -0.296 | H 0.103 | I -0.361 | K -0.006 | L -0.274 | M -0.049 | N -0.002 | P -0.797 | Q -0.021 | S 0.041 | T -0.003 | V -0.228 | W -0.201 | Y -0.085
P46: A -0.346 | D -0.854 | E -0.779 | F -0.725 | G -0.77 | H -0.746 | I -0.26 | K -0.938 | L -0.356 | M -0.459 | N -0.685 | Q -0.482 | R -0.925 | S -0.652 | V -0.37 | W -0.356 | Y -0.594
K47: A -0.116 | D -0.08 | E -0.037 | F -0.338 | G -0.288 | H -0.276 | I -0.086 | L 0.028 | M -0.06 | N -0.339 | Q 0.03 | R -0.072 | S -0.126 | T -0.019 | V -0.015 | W -0.329 | Y -0.432
P48: A -0.119 | C -0.268 | D -0.267 | E -0.126 | F -0.513 | G -0.539 | H -0.16 | I -0.438 | K -0.452 | M -0.27 | N -0.446 | Q -0.247 | R -0.475 | S -0.168 | V -0.374 | W -0.325 | Y -0.78
W49: A -0.202 | E -0.273 | L -0.506 | R -0.574 | S -0.477 | T -0.509 | V -0.529
N50: A -0.062 | C 0.064 | D -0.103 | E -0.071 | F -0.265 | G -0.129 | H -0.074 | K -0.093 | L -0.424 | M -0.23 | P -0.003 | Q -0.057 | R -0.04 | S 0.073 | T -0.16 | V -0.309 | W -0.151 | Y -0.165
K51: D 0.054 | E 0.063 | F -0.098 | G -0.198 | H -0.075 | I -0.008 | L 0.011 | M -0.011 | N 0.012 | P -0.912 | Q 0.122 | R -0.047 | S 0.006 | T 0.011 | V 0.053 | W -0.338 | Y -0.195
L52: A -1.04 | C -0.484 | D -1.17 | E -1.02 | F -0.915 | H -1.02 | I -0.538 | K -1.13 | N -1.1 | P -0.97
